The chains are these.
B1: full length S. pombe Pik1, wild type [S. pombe] / purified Cdc4 protein [S. pombe] (parent complex)
chain 1: MPSSNSGNELLLRFFESAHFTSQLCVAYLSRYPNNIGIHHFLCEKLATFPYEEIEFFIPQLIHLVLNKDSESVALEEFIISQCEQNTQCALITFWYLQAHMVDLGLQPHSSCFKICKRLYNRIQILVFMSSSSLIQSQQKISENVTPALILSGIMLGGVCVPELLKKAGPIAIAQGRKAPRQDPDESDVDVLRRLSTEPRYSLDVLRSSLNNSIVEQHSEVSLRLKAPELTRTHSYQSSATLSIDEQRRVLRSNYFQQEIQFLFALQDISIRLIIVPRQARLSSLRAELALLNNNLPADVNIPLLRSYHKEVSHKIVRIDPKEATILNSAERVPYLIMVEVLSGELSFEPQSKKNKAKVQKIVSHKNQRKRWFDLTDVDPYTNLQDSTDNDISESESEGGDLSMSPLIKGLVPDTLSLSKSFSSFGNVSLQVPSSHRDTDVVLLSGRHSDSDGNGALKRSKIYASEITARMRAAATMLSQLDAEGSRRPKAETERIKNSIILDMQRLEEERLNEPSIYPVSVDISCAEDLRFGKETQKAERKGDRDDPSAATFQEDWYAKKERIRKSSPYGHYPNWDLVSVIVKTGADLRQETFACQLIYAFQRVWLECKEKVWVRRMKILVTGDNSGLIETITNAISVHSIKKNLTKQLREAELAQGKIAGKNVVTLKDYFIKQFGDPNSSRYRQAQTNFLQSLVAYSIISYLLQLKDRHNGNVLIDSEGHIIHIDFGFLLTNTPGNVGFESAPFKLTADYLEILDDRFDEYRSLMKAAFKSVRKNADQIILLVEVMQNNSTMPCFRAGENTSAQLLQRFQLQLGDKECDDFVDLLIQKANCSVWTRLYDLFQNITNGIY
chain 2: MSTDDSPYKQAFSLFDRHGTGRIPKTSIGDLLRACGQNPTLAEITEIESTLPAEVDMEQFLQVLNRPNGFDMPGDPEEFVKGFQVFDKDATGMIGVGELRYVLTSLGEKLSNEEMDELLKGVPVKDGMVNYHDFVQMILAN

The variants in the assay derive from B1. Kind of assay: sandwich ELISA; about 56 µg lysate protein (highest point of 2-fold serial dilution); cells grown in the absence of thiamine; Cdc4-coated wells; parent: 0.27; read off a plot.
For chain 1 R838A, the response was around 0.027 Absorbance.
